Measurements from article PMC9712102.

Assays:
CapRel^SJ46–Flag = assay: immunoprecipitation followed by mass spectrometry
[1] = biological target: Gp57, purified (phage SECΦ27); assay: SEC-MALS; co-purified CapRel^SJ46–Gp57 complex at 5 mg ml^−1; 50 mM HEPES pH 7.5, 500 mM KCl, 500 mM NaCl, 10 mM MgCl2, 1 mM TCEP, 0.002% mellitic acid
[2] = biological target: CapRel^SJ46, purified full-length; assay: ITC; conditions: CapRelSJ46 titrated into Gp57(L114P I115F)
[3] = biological target: Gp57, purified (phage SECΦ27); assay: ITC; CapRel^SJ46 (or variant) at 150 μM in the syringe titrated into Gp57 (or variant) at 10 μM in the cell; 25 °C; 50 mM HEPES pH 7.5, 500 mM KCl, 500 mM NaCl, 150 mM imidazole, 10 mM MgCl2, 1 mM TCEP, 0.002% mellitic acid
[4] = biological target: Gp57 (L114P I115F), purified (phage SECΦ27); assay: as above

**Q.** With “Gp57, major capsid protein of SECΦ27, made by wild-type phage during infection L114P” as the substance, how does the response (SC(Gp57)/SC(CapRelSJ46)) (CapRel^SJ46–Flag; 40 min after infection, bar = mean of 2 biological replicates, parent: est. 0.33, read off a plot) read?
**A.** 0.07

**Q.** And the response (spectral counts (SC)) (CapRel^SJ46–Flag; replicate1, 15 min after infection, CapRelSJ46 SC 276 (L114P mutant), 286 (WT), parent: 12)?
**A.** 0

**Q.** What about the response (spectral counts (SC)) (CapRel^SJ46–Flag; replicate1, 40 min after infection, CapRelSJ46 SC 251 (L114P mutant), 217 (WT), parent: 64) of the same substance?
**A.** 25

**Q.** And the response (spectral counts (SC)) (CapRel^SJ46–Flag; replicate2, 15 min after infection, CapRelSJ46 SC 145 (L114P mutant), 161 (WT), parent: 0)?
**A.** 0

**Q.** What about the response (spectral counts (SC)) (CapRel^SJ46–Flag; replicate2, 40 min after infection, CapRelSJ46 SC 156 (L114P mutant), 138 (WT), parent: 52) of the same substance?
**A.** 6

**Q.** “CapRel^SJ46(Y155A), co-purified with Gp57 (natural protein)” was tested. Which stoichiometry N [1] did it give?
**A.** 1

**Q.** With Gp57, purified L114P; I115F as the substance, how does the Kd [2] read?
**A.** 23.7 µM

**Q.** Which results are given for “CapRel^SJ46, purified full-length (natural protein)”?
**A.** stoichiometry N [3]: 1; fold decrease in affinity against wild-type Gp57 [4]: > 60 fold
